Source: article PMC10397247

What was measured:
Test in all cases: two-hybrid library CCmax;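 further: natural log of median RNA to DNA barcode read ratio; higher means stronger binding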
4H2774-AA = molecular target: T1, 4H2774-AA
T1 chain: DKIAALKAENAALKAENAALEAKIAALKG

4H2903-AA = molecular target: T2, 4H2903-AA; conditions: mean of both orientations
T2 chain: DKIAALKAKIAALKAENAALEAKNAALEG

4H2931-AA = molecular target: T3, 4H2931-AA; conditions: mean of both orientations
T3 chain: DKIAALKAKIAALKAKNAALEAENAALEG

4H2947-AA = molecular target: T4, 4H2947-AA; conditions: mean of both orientations
T4 chain: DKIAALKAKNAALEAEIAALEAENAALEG

4H2961-AA = molecular target: T5, 4H2961-AA; conditions: mean of both orientations
T5 chain: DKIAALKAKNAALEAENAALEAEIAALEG

4H3001-AA = molecular target: T6, 4H3001-AA; conditions: mean of both orientations
T6 chain: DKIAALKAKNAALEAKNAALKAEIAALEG

4H3015-AA = molecular target: T7, 4H3015-AA; conditions: mean of both orientations
T7 chain: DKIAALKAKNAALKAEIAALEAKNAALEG

4H3049-AA = molecular target: T8, 4H3049-AA; conditions: mean of both orientations
T8 chain: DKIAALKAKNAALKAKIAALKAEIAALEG

4H3073-AA = molecular target: T9, 4H3073-AA; conditions: mean of both orientations
T9 chain: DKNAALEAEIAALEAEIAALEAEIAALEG

4H3094-AA = molecular target: T10, 4H3094-AA; conditions: mean of both orientations
T10 chain: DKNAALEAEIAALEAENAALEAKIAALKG

4H3129-AA = molecular target: T11, 4H3129-AA; conditions: mean of both orientations
T11 chain: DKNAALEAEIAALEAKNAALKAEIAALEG

4H324-AA = molecular target: T12, 4H324-AA; conditions: mean of both orientations
T12 chain: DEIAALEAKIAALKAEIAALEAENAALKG

4H3340-AA = molecular target: T13, 4H3340-AA; conditions: mean of both orientations
T13 chain: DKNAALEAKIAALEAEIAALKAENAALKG

4H3381-AA = molecular target: T14, 4H3381-AA; conditions: mean of both orientations
T14 chain: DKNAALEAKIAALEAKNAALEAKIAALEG

4H341-AA = molecular target: T15, 4H341-AA; conditions: mean of both orientations
T15 chain: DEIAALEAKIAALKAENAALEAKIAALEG

4H3414-AA = molecular target: T16, 4H3414-AA; conditions: mean of both orientations
T16 chain: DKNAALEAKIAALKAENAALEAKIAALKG

4H3438-AA = molecular target: T17, 4H3438-AA; conditions: mean of both orientations
T17 chain: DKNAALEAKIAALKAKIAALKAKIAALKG

4H3449-AA = molecular target: T18, 4H3449-AA; conditions: mean of both orientations
T18 chain: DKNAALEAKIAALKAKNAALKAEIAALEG

4H347-AA = molecular target: T19, 4H347-AA; conditions: mean of both orientations
T19 chain: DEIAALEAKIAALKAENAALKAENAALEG

4H3493-AA = molecular target: T20, 4H3493-AA; conditions: mean of both orientations
T20 chain: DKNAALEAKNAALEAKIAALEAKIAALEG

4H3595-AA = molecular target: T21, 4H3595-AA; conditions: mean of both orientations
T21 chain: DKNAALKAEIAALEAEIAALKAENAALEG

4H3619-AA = molecular target: T22, 4H3619-AA; conditions: mean of both orientations
T22 chain: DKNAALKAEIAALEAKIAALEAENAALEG

4H3629-AA = molecular target: T23, 4H3629-AA; conditions: mean of both orientations
T23 chain: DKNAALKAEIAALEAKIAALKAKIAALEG

4H376-AA = molecular target: T24, 4H376-AA; conditions: mean of both orientations
T24 chain: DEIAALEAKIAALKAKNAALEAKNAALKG

4H3777-AA = molecular target: T25, 4H3777-AA; conditions: mean of both orientations
T25 chain: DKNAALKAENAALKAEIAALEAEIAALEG

4H3782-AA = molecular target: T26, 4H3782-AA; conditions: mean of both orientations
T26 chain: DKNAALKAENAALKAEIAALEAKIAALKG

4H380-AA = molecular target: T27, 4H380-AA; conditions: mean of both orientations
T27 chain: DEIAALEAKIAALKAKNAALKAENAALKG

4H3915-AA = molecular target: T28, 4H3915-AA; conditions: mean of both orientations
T28 chain: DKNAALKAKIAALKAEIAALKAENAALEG

4H3939-AA = molecular target: T29, 4H3939-AA; conditions: mean of both orientations
T29 chain: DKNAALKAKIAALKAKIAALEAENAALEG

4H3969-AA = molecular target: T30, 4H3969-AA; conditions: mean of both orientations
T30 chain: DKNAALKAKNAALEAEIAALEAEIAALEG

4H3974-AA = molecular target: T31, 4H3974-AA; conditions: mean of both orientations
T31 chain: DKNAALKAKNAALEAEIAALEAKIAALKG

4H406-AA = molecular target: T32, 4H406-AA; conditions: mean of both orientations
T32 chain: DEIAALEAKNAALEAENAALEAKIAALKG

4H432-AA = molecular target: T33, 4H432-AA; conditions: mean of both orientations
T33 chain: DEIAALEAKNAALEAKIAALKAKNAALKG

4H446-AA = molecular target: T34, 4H446-AA; conditions: mean of both orientations
T34 chain: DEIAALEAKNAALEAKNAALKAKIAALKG

4H452-AA = molecular target: T35, 4H452-AA; conditions: mean of both orientations
T35 chain: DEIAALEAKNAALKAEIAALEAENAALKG

4H464-AA = molecular target: T36, 4H464-AA; conditions: mean of both orientations
T36 chain: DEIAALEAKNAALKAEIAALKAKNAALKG

4H483-AA = molecular target: T37, 4H483-AA; conditions: mean of both orientations
T37 chain: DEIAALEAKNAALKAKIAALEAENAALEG

4H56-AA = molecular target: T38, 4H56-AA; conditions: mean of both orientations
T38 chain: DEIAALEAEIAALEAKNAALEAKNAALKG

4H63-AA = molecular target: T39, 4H63-AA; conditions: mean of both orientations
T39 chain: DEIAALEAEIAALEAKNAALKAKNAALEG

4H688-AA = molecular target: T40, 4H688-AA; conditions: mean of both orientations
T40 chain: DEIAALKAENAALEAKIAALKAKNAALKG

4H963-AA = molecular target: T41, 4H963-AA; conditions: mean of both orientations
T41 chain: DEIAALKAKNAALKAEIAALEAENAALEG

4H_APH = molecular target: T42, 4H_APH; conditions: mean of both orientations
T42 chain: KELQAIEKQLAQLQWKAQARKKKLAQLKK

4H_BCR = molecular target: T43, 4H_BCR; conditions: mean of both orientations
T43 chain: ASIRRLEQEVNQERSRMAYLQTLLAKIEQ

4H_GCN4 = molecular target: 4H_GCN4
GCN2_T = molecular target: GCN2_T

4H_GCN4, sequence (chain, as listed by the source): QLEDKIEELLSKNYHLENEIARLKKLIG

Binder: DKIAALKAENAALKAENAALEAKIAALKG [4H2774-AA]
- interaction score (4H2774-AA): 1.65
- interaction score (4H2903-AA): -1.73
- interaction score (4H2931-AA): -1.98
- interaction score (4H2947-AA): -1.7
- interaction score (4H2961-AA): -0.737
- interaction score (4H3001-AA): 0.364
- interaction score (4H3015-AA): -1.48
- interaction score (4H3049-AA): 1.59
- interaction score (4H3073-AA): -1.43
- interaction score (4H3094-AA): -0.282
- interaction score (4H3129-AA): -0.715
- interaction score (4H324-AA): -1.75
- interaction score (4H3340-AA): -1.59
- interaction score (4H3381-AA): -1.61
- interaction score (4H341-AA): 0.103
- interaction score (4H3414-AA): -1.5
- interaction score (4H3438-AA): -1.63
- interaction score (4H3449-AA): -0.756
- interaction score (4H347-AA): -0.921
- interaction score (4H3493-AA): -1.56
- interaction score (4H3595-AA): -1.57
- interaction score (4H3619-AA): -1.75
- interaction score (4H3629-AA): -1.34
- interaction score (4H376-AA): -2.64
- interaction score (4H3777-AA): -0.668
- interaction score (4H3782-AA): -1.14
- interaction score (4H380-AA): -1.68
- interaction score (4H3915-AA): -1.36
- interaction score (4H3939-AA): -1.9
- interaction score (4H3969-AA): -1.72
- interaction score (4H3974-AA): -0.913
- interaction score (4H406-AA): -0.207
- interaction score (4H432-AA): -1.57
- interaction score (4H446-AA): 1.28
- interaction score (4H452-AA): -0.902
- interaction score (4H464-AA): -1.18
- interaction score (4H483-AA): -1.21
- interaction score (4H56-AA): -1.47
- interaction score (4H63-AA): -1.37
- interaction score (4H688-AA): -0.923
- interaction score (4H963-AA): -0.529
- interaction score (4H_APH): -1.61
- interaction score (4H_BCR): -0.289
- interaction score (4H_GCN4): -2.24
- interaction score (GCN2_T): -1.68
